Test results: article PMC2063677

Legend:
IMP full length = biological target: T1, IMP full length (Drosophila melanogaster, UniProt Q8IR99 1-573); test: filter binding
T1 sequence: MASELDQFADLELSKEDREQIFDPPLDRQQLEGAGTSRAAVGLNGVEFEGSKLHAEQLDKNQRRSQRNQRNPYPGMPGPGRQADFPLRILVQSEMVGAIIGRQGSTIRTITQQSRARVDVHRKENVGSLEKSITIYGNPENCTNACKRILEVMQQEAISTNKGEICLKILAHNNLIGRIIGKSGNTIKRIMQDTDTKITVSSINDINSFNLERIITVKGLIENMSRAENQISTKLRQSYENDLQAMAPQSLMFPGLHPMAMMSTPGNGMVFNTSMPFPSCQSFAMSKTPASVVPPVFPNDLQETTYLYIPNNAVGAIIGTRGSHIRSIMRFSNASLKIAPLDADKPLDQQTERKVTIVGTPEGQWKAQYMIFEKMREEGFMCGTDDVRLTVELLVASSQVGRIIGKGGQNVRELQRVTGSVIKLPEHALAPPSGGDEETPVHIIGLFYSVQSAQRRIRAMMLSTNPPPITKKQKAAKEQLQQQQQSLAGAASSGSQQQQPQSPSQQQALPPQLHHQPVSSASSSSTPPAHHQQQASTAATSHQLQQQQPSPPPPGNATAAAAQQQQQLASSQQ

IMP KH3 = biological target: T2, IMP KH3 (Drosophila melanogaster, UniProt Q8IR99 301-396); test: filter binding
T2 sequence: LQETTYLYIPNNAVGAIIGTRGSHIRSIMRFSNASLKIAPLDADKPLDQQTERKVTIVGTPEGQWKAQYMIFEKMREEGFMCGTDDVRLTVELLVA

B1: 3x 4-12-13 WT (UUUAU) (ssRNA)
RNA: GUUUUUAUUAUUUUUAUUUUUUCAACUUUUUAUUAUUUUUAUUUUUUCAACUUUUUAUUAUUUUUAUUUUUUCAAC
- binding result (IMP full length): binds
- binding result (IMP KH3): binds
